Each sequence was assayed on MS2 coat protein (assay: apparent KD of MS2 coat protein, switch OFF state (with FMN for OFF switches, without FMN for ON switches); designed switch direction (-1 OFF switch, 1 ON switch): 1; higher = weaker reporter binding). Settings: FMN input: 0 or 200 uM; Eterna round: R93 (includes R88 designs).
Summary of the method: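 The buffer was 100 mM Tris-HCl pH 7.5 with 80 mM KCl and 4 mM MgCl2, used without or with constant ligand. In it, RNA switches transcribed on-chip from Illumina sequencing clusters were titrated with SNAP-549-labelled MS2 coat protein in twofold steps from 0.7 or 1.5 nM to 3 µM. Apparent KD for each design is the median of its normalised cluster binding-curve fits.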
In the case of “AAAAGACAUGAGGAUCACCCAUGUCAAGACAUAGGAGGAUAUGUCAUGAAAAAAGACUUGACAGAAGGCCUUUGUC [SS1 - 51]”, the “apparent KD of MS2 coat protein” value is reported as 17.4 nM.
With “AGAAAUAAAAGACAGGAUAUCCUUAAGAAAACAUGAGGAUCACCCAUGUAAAAGAAAAUAAAAAGGGAGAAGGGUCAAAAUAAGA [Mat - Same State 2 - JL mod - D80]” the “apparent KD of MS2 coat protein” value was 26.2 nM.
“UGGAGACAUGAGGAUCACCCAUGUGAGAAGAGGCGAGGAUAUCGAAAGAAAGAAGAGAAACGAGAAGGCGCGAGGA [salish99-SS1-039]” was tested, and the “apparent KD of MS2 coat protein” value was 49.8 nM.
With “AUAUGCAUAGACAAGGAUAUCGGUCUAGAAACAUGAGGAUCACCCAUGUAAGUGAAAAUCUGUAAUGAGAAGGUGUUGUUGGGUU [Isan]” the “apparent KD of MS2 coat protein” value was 89.4 nM.
With “AACAAUCUAUCUGAGGAUAUCAUGACAAAGACAUGAGGAUCACCCAUGUCCAGGAAAACUGGUUAUGAGAAGGCAGAUAGAUUGA [SS2: 1112]” the “apparent KD of MS2 coat protein” value was 13.2 nM.
With “AAUAACAAAAGAAAGGAUAUAUAAACAGGAACAUGAGGAUCACCCAUGUGCCGCCAAGGCGGAUAAUAGAAGGUUCACAUGCAUA [Default title]” the “apparent KD of MS2 coat protein” value was 25.3 nM.
In the case of “AACAAUCUAUCUGAGGAUAUCAUGUGAAAGACAUGAGGAUCACCCAUGUUGCAGGAAACUGCUCAUGAGAAGGCAGAUAGAUUGA [SS2: 1126]”, the “apparent KD of MS2 coat protein” value is reported as 28.3 nM.
“AAUAUACAUGAGGAUCACCCAUGUUAGGUGGGACUAGGAUAUCAAAAGAAAGAGUAAGAAUGAGAAGGAGUAGAAA [JR_SS001_Sub016]” was tested, and the “apparent KD of MS2 coat protein” value was 240 nM.
“GAAAUACAUGAGGAUCACCCAUGUUAGGUGGGUCAAGGAUAUUGAUAUAAAUAAAAAACUCGAGAAGGUGAAUAAA [JR_SS001_Sub201]” was tested, and the “apparent KD of MS2 coat protein” value was 179 nM.
For “AAUAUACAUGAGGAUCACCCAUGUUUUAAUAGCUGAGGAUAUACGGGUGAAAACAGCAUAGUAGAAGGCAGGUAUA [SameState1 Malc#7]”, the “apparent KD of MS2 coat protein” value was 86.7 nM.
With “CAGGACAUAGGAUAGGAUAUAUGAAUAAUUACAUGAGGAUCACCCAUGUCCAUUUAUAUGGGAACAUAGAAGGGUUGUAGUUAUG [Mat - Same state - Malcolm Mod - D143]” the “apparent KD of MS2 coat protein” value was 388 nM.
For “AAAAAACAUGAGGAUCACCCAUGUGAAGAUAUGGAAGGAUAUACAAAGACGAAAGUCAAAGUAGAAGGUCUAAAAG [76%, Meechl 3]”, the “apparent KD of MS2 coat protein” value was 17.7 nM.
In the case of “CGGAGACAUGAGGAUCACCCAUGUGAGAAGAGGCGAGGAUAUUGAAAGAAAGAAGAGAAAUGAGAAGGCGCGAGCC [salish99-SS1-083]”, the “apparent KD of MS2 coat protein” value is reported as 38.1 nM.
In the case of “GAAAAACAUGAGGAUCACCCAUGUGUAAACAUGGGAGGAUAUACGAAGACGUAAGUCAAAGUAGAAGGCCUAAAAG [Garnet 36]”, the “apparent KD of MS2 coat protein” value is reported as 24.9 nM.
For “AAAAAACAUGAGGAUCACCCAUGUCCUCACGUGCGAGGAUAUGGAUGGAAACCAUACUGUCCAGAAGGCGCAUGUA [EteRNA is fun!]”, the “apparent KD of MS2 coat protein” value was 159 nM.
In the case of “CGGCUAAACGGGCAGGAUAUGUUCACUAGAACAUGAGGAUCACCCAUGUGAAACUGGCGAUAAUCGCAGAAGGGCCCGUGCACGA [Atensoin]”, the “apparent KD of MS2 coat protein” value is reported as 61.3 nM.
In the case of “AAUAUAUUAUUUAAGGAUAUCAUAGGAAAAACAUGAGGAUCACCCAUGUGGGAAACCUGGUCGGGUGAGAAGGUGGAUAAUAUAU [Samwise Clockwise 34 - Jieux - Same State 2]”, the “apparent KD of MS2 coat protein” value is reported as 317 nM.
In the case of “AAGAAACAUGAGGAUCACCCAUGUGAUAAUAUGGGAGGAUAUACGAAGACGAAAGACGAAGUAGAAGGCCUAUGAA [Garnet 45]”, the “apparent KD of MS2 coat protein” value is reported as 83.3 nM.
For “AACAAUCUAUCUGAGGAUAUCAUGUCAAAGACAUGAGGAUCACCCAUGUGUAGGAAAACUACAUAUGAGAAGGCAGAUAGAUUGA [SS2 :P - 598]”, the “apparent KD of MS2 coat protein” value was 103 nM.
For “CCGAUACAUGAGGAUCACCCAUGUUAGGUAGAACAAGGAUAUCUAGAUAGAUAAAAAUAUAGAGAAGGUGUAUAAC [JR_SS001_Sub208]”, the “apparent KD of MS2 coat protein” value was 26 nM.
With “AAACCACAUGAGGAUCACCCAUGUAAAAAUAUGGGAGGAUAUGCGAAAAGAAACAAAGAAGCAGAAGGCCUAAAAA [75%, Ex sub1, 19]” the “apparent KD of MS2 coat protein” value was 114 nM.
In the case of “GAAAAACAUGAGGAUCACCCAUGUAGAAAUAUGGGAGGAUAUACAAAGACGAAAGUCAAAGUAGAAGGCCUGAUAG [JL S1 M-MoE mod 3]”, the “apparent KD of MS2 coat protein” value is reported as 79.2 nM.
For “GAUAGGAAGAGAGAGGAUAUCCAAAGGAAAACAUGAGGAUCACCCAUGUAAAAGGUAGGAAAUUGGGAGAAGGCUCAAGAGAGAG [salish99-ss2-075]”, the “apparent KD of MS2 coat protein” value was 31.9 nM.
With “AAUAGACAUGAGGAUCACCCAUGUGUAUAUGGGAGAGGAUAUACGGGACACAAGGGCGGAGUAGAAGGCUCGAGAC [Same Satate 1]” the “apparent KD of MS2 coat protein” value was 83.9 nM.
For “AUAAAACAUGAGGAUCACCCAUGUCCGACAAAUCAAGGAUAUGAGAGCCAAACCAGGCUGUUAGAAGGUGAAAGAA [Edorlebere]”, the “apparent KD of MS2 coat protein” value was 182 nM.
With “AAGAAACAUGAGGAUCACCCAUGUAAGAUAAACACAGGAUAUGCGAAAAUAAACAAAUAAGCAGAAGGGUGAAAAG [Mat - Same State 1 - Tesla mod - 76]” the “apparent KD of MS2 coat protein” value was 19.3 nM.
“AAUAAUUAUAUGGAGGAUAUCGGUAAUAAGACAUGAGGAUCACCCAUGUAAUAAGGUUAAAUAAACGAGAAGGCCAAGGGUGAAA [JR_SS002_Sub005]” was tested, and the “apparent KD of MS2 coat protein” value was 234 nM.
In the case of “CGAAAGGAGAGAGAGGAUAUCCAAAGGAAAACAUGAGGAUCACCCAUGUAGAAGGUAGGAGAUUGGGAGAAGGCUCAAGAGAGAC [salish99-ss2-148]”, the “apparent KD of MS2 coat protein” value is reported as 48.2 nM.
In the case of “AAAAAACAUGAGGAUCACCCAUGUGCAAAAUUCGCAGGAUAUUUCUCAAUUAAAUGAGAGGAAGAAGGGUGAAAAA [Nob's Hobby 27 - Jieux - Same State 1]”, the “apparent KD of MS2 coat protein” value is reported as 99.3 nM.
In the case of “UGAAGACAUGAGGAUCACCCAUGUGGGAAUAUGGGAGGAUAUACAAAGACGAGAGUCAGAGUAGAAGGCCUAGGAG [salish99-ss1-97]”, the “apparent KD of MS2 coat protein” value is reported as 103 nM.
In the case of “UGGAGACAUGAGGAUCACCCAUGUGAGAAGAGGCGAGGAUAUCGAAAGAAAGAAGAGAAACGAGAAGGCGCGAGAU [salish99-SS1-034]”, the “apparent KD of MS2 coat protein” value is reported as 27.6 nM.
In the case of “GAAGACAUAGUUCAGGAUAUAUGAAUAGUCACAUGAGGAUCACCCAUGUCCAUUUAUAUGGGCACAUAGAAGGGAGGUAGUUAUC [SameState2 Malc#25]”, the “apparent KD of MS2 coat protein” value is reported as 380 nM.
With “AGCACGUGAUUGGAGGAUAUGUAGUAAGCAACAUGAGGAUCACCCAUGUCUGAGGCUGAAAAGCAGCAGAAGGCCGAUACAACCA [SS2-1.5]” the “apparent KD of MS2 coat protein” value was 19.2 nM.
In the case of “GAAAAACAUGAGGAUCACCCAUGUAGAAAUAUGGGAGGAUAUACGAAGUCGAAAGACAAAGUAGAAGGCCUAAAAG [Garnet 27]”, the “apparent KD of MS2 coat protein” value is reported as 50.4 nM.
For “AGAAAACAUGAGGAUCACCCAUGUAGAAAUAUGGGAGGAUAUACAAAGACGAAAGUCAGAGUAGAAGGCCUAAAAA [salish99-SS1-085]”, the “apparent KD of MS2 coat protein” value was 77.3 nM.
“AAGAAACAUGAGGAUCACCCAUGUAGAAAUAUGGGAGGAUAUACAAAGACGAAAGUCAAAGUAGAAGGCCUGAAAG [Mat - Same State 1 - Eli mod - 84]” was tested, and the “apparent KD of MS2 coat protein” value was 72.4 nM.
In the case of “AAGAAACAUGAGGAUCACCCAUGUAAGAUAAACACAGGAUAUGCGAAAAGAAACAAAUAAGCAGAAGGGUGAAGAA [Mat - Same State 1 - Tesla mod - 64]”, the “apparent KD of MS2 coat protein” value is reported as 23 nM.
In the case of “AAAUAAAGGACUGAGGAUAUACCACAUGAAACAUGAGGAUCACCCAUGUUGAAAAACAGAGGGUGGUAGAAGGCAGUCCACAAAC [Same State 2.5d ( so lets mod hyphema)]”, the “apparent KD of MS2 coat protein” value is reported as 23.3 nM.
For “AAAUAACAUGAGGAUCACCCAUGUUACGACGUUACAGGAUAUGUGGGUGAAAAUAGCAUGACAGAAGGGUACCGUA [SameState1 Malc#37]”, the “apparent KD of MS2 coat protein” value was 60.3 nM.
With “AAAGACAUAGUUCAGGAUAUGGUAAUAGUCACAUGAGGAUCACCCAUGUGCAUUUAUAUGCGCGAUCAGAAGGGAGGUAAAAAAA [SameState2 Malc#16]” the “apparent KD of MS2 coat protein” value was 21.9 nM.
With “AAAAAACAUGAGGAUCACCCAUGUCUUCGGACGUGAGGAUAUGUACAGACUUCGGUCUGUACAGAAGGCACGAAAA [SS1 - 1035]” the “apparent KD of MS2 coat protein” value was 114 nM.
For “AAUAAUUAUACGAAGGAUAUCGGUAUUAAGACAUGAGGAUCACCCAUGUAAUAUGGUUAUAUAAACGAGAAGGUCGAGGGUGAAA [JR_SS002_Sub008]”, the “apparent KD of MS2 coat protein” value was 36.9 nM.
“AUAAAACAUGAGGAUCACCCAUGUAGAAAUAUGGGAGGAUAUACGAAGACGAAAGUCGAAGUAGAAGGCCUAAAAG [Mat - Same State 1 - Meechl mod - D116]” was tested, and the “apparent KD of MS2 coat protein” value was 67.7 nM.

Reference: the supplement of paper PMC9170038
